B1: Hairpin Ribozyme (parent)
chain: GUCCUCUUUCACGUGCGCGUGAAAGAGAGAAGUGAACCAGAGAAACACACGUUGUGGUAUAUUACCUGGUA

In this data set the parent is B1. Briefly: self-cleavage, relative activity (ratio to wild type); higher = more cleavage; co-transcriptional.
With G32U G54A, the self-cleavage was found to be 0.105.

Turning to G15U G51C, the self-cleavage amounted to 1.08.

Consider C10G C48G, for which the self-cleavage came to 0.0825.

Consider G27U C46G, for which the self-cleavage was determined as 0.0944.

Take U20G A64G: the self-cleavage turned out to be 0.511.

In the case of C16U A49C, the self-cleavage is 0.204.

In the case of C38U U63C, the self-cleavage is 0.128.

On to C12A C48A, for which the self-cleavage turned out to be 0.162.

Consider G21A A43C, for which the self-cleavage is 0.153.

With G34C A35G, the self-cleavage amounted to 1.4.

For the variant U2G U8A, the self-cleavage was found to be 0.295.

Regarding U8G C10U, the self-cleavage came out at 0.654.

On to G42U A71G, for which the self-cleavage was 0.393.

For the variant A45U U70G, the self-cleavage stood at 0.24.

Regarding C4U U62C, the self-cleavage came to 0.16.

On to U7A U55A, for which the self-cleavage amounted to 0.152.

Regarding C6G U55A, the self-cleavage was 0.13.

Consider C16G A43G, for which the self-cleavage is 0.0515.

As for U5C A11C, the self-cleavage turned out to be 0.764.

In the case of A23U U62C, the self-cleavage was 0.247.

For A11U G27A, the self-cleavage amounted to 0.406.

Take G1A A45U: the self-cleavage stood at 0.106.

Turning to C16U U55A, the self-cleavage turned out to be 0.357.

Regarding U2A A35G, the self-cleavage turned out to be 0.225.

Turning to U2A G54A, the self-cleavage is 0.143.

Turning to G15C A59C, the self-cleavage turned out to be 0.146.

C3A G27C: the self-cleavage amounted to 0.21.

Turning to U9A U33G, the self-cleavage is 0.105.

Turning to U9A U33A, the self-cleavage amounted to 0.0178.

Regarding U7G C46A, the self-cleavage was 0.0994.

Turning to G15C A35G, the self-cleavage was determined as 1.08.

As for A31G U52G, the self-cleavage amounted to 0.4.

For G34U A64G, the self-cleavage was 1.17.

Turning to C46G A61U, the self-cleavage amounted to 0.157.

For the variant C3U G51A, the self-cleavage was 0.467.

U9A G69C: the self-cleavage worked out at 0.274.

With C3A U33C, the self-cleavage is 0.191.

With G29C A30U, the self-cleavage is 0.0915.

As to A45G G68A, the self-cleavage was 0.122.

Regarding G17C A59C, the self-cleavage is 0.162.

In the case of G17C A59G, the self-cleavage came out at 0.171.

Regarding U14A C66G, the self-cleavage was found to be 0.143.

Regarding A39G C65G, the self-cleavage was determined as 0.152.

In the case of U9C G29A, the self-cleavage worked out at 0.118.

Turning to G15A A47C, the self-cleavage amounted to 0.302.

As for G32U A64U, the self-cleavage amounted to 0.126.

As for U2G C3U, the self-cleavage turned out to be 0.181.

As to G1C A31C, the self-cleavage is 0.284.

Regarding G40C A64G, the self-cleavage is 0.129.

Turning to A23G G25C, the self-cleavage is 0.521.

On to C10A C66A, for which the self-cleavage amounted to 0.283.

As to U14A U62C, the self-cleavage came out at 0.257.

As to G21C A71G, the self-cleavage was 0.818.

For A41C U70G, the self-cleavage is 0.91.

Regarding G32C C65G, the self-cleavage stood at 0.0614.

As for U58G A64U, the self-cleavage stood at 0.218.

Regarding A30U A61U, the self-cleavage was determined as 0.0778.

U8A A71C: the self-cleavage is 1.23.

Turning to U53G U70G, the self-cleavage amounted to 0.848.

Turning to U20G G29C, the self-cleavage amounted to 0.18.

Consider U7C C18U, for which the self-cleavage amounted to 1.06.

For the variant U7C C18A, the self-cleavage amounted to 0.973.

Take C10G G34C: the self-cleavage is 1.08.

As for C10A G25A, the self-cleavage was found to be 0.187.

Turning to A30G G51C, the self-cleavage amounted to 0.199.

Take C10A A23U: the self-cleavage was determined as 0.666.

Consider C10A A45U, for which the self-cleavage is 0.121.

Turning to G19A U62C, the self-cleavage amounted to 0.278.

Regarding C18A A64C, the self-cleavage is 0.19.

Turning to U52G A64C, the self-cleavage is 0.0463.

Take U14A U53G: the self-cleavage is 0.899.

For U9G G32C, the self-cleavage came out at 0.0561.

Consider C37U A47C, for which the self-cleavage amounted to 0.16.

Regarding U8A U63G, the self-cleavage stood at 0.117.

For U9G C46A, the self-cleavage was found to be 0.204.

Consider A36C A39G, for which the self-cleavage worked out at 0.363.

For A35U C46U, the self-cleavage turned out to be 0.143.

For U9C G40U, the self-cleavage was 0.169.

In the case of A35U U70G, the self-cleavage was 0.874.

As to C3A A35C, the self-cleavage was 1.15.

For the variant U14C C38G, the self-cleavage came to 0.246.

Turning to G40C U53G, the self-cleavage turned out to be 0.103.

As to U5C A49U, the self-cleavage is 0.143.

A28U C66U: the self-cleavage is 0.207.

For the variant A39U U52G, the self-cleavage worked out at 0.252.

Turning to C16A A39C, the self-cleavage was 0.484.

As to C16G G25A, the self-cleavage turned out to be 0.612.

Consider U14A A47G, for which the self-cleavage is 0.153.

G34A C48U: the self-cleavage worked out at 0.191.

For G1A C46U, the self-cleavage stood at 0.225.

Consider A35C U67G, for which the self-cleavage came out at 0.278.

Consider U8A U53G, for which the self-cleavage was 0.59.

Take U20G C66A: the self-cleavage came to 0.0821.

With C38U A71G, the self-cleavage came out at 0.681.

For the variant C18A A41C, the self-cleavage came out at 1.21.

As to U8A A36G, the self-cleavage stood at 0.714.

Consider U5C A39G, for which the self-cleavage turned out to be 0.192.

With C48A A49U, the self-cleavage was 0.172.

On to A36G G40C, for which the self-cleavage is 0.122.

As for G34C C65G, the self-cleavage was found to be 1.07.

For C10G A36U, the self-cleavage worked out at 0.336.

On to U7G U62C, for which the self-cleavage stood at 0.0811.

As to A31G A36U, the self-cleavage is 0.306.

Take U62C A71U: the self-cleavage was found to be 0.277.

In the case of A41G C50A, the self-cleavage turned out to be 0.255.

Regarding C6G U20G, the self-cleavage is 0.248.

As for A31G C50G, the self-cleavage was determined as 0.176.

Turning to C3A C48A, the self-cleavage came out at 0.152.

Turning to A23C C65G, the self-cleavage turned out to be 0.186.

A64U U70A: the self-cleavage worked out at 0.257.

Consider G42C C48G, for which the self-cleavage stood at 0.113.

For the variant G40C U63A, the self-cleavage came out at 0.183.

As to G13C A35U, the self-cleavage stood at 0.552.

With A35C U55A, the self-cleavage worked out at 0.177.

With A47C U60C, the self-cleavage was 0.418.

As to G21C A59C, the self-cleavage came to 0.238.

For the variant U2G U14G, the self-cleavage was determined as 0.322.

In the case of G56U U67C, the self-cleavage was 0.111.

Regarding C4A G68C, the self-cleavage stood at 0.141.

Turning to A23G A49G, the self-cleavage stood at 0.426.

In the case of C50U C66U, the self-cleavage came out at 0.159.

As for G1C A28C, the self-cleavage stood at 0.262.

Take G13C A24U: the self-cleavage came to 0.735.

For the variant U7G A36C, the self-cleavage turned out to be 0.669.

Take C10A G19U: the self-cleavage is 0.59.

With U2G A47U, the self-cleavage was 0.0492.

For the variant A31U C66U, the self-cleavage came out at 0.0749.

With G19A U58A, the self-cleavage turned out to be 0.557.

Consider G54C G56C, for which the self-cleavage amounted to 0.286.

Regarding A43G U67G, the self-cleavage came to 0.207.

As for A30U G68U, the self-cleavage turned out to be 0.207.

Turning to A23C U55A, the self-cleavage turned out to be 0.17.

For the variant C3A A11G, the self-cleavage was determined as 0.686.

For the variant U60C U63G, the self-cleavage came out at 0.136.

For G15A G51C, the self-cleavage amounted to 0.79.

Take U33A G42U: the self-cleavage stood at 0.181.

U33A G42A: the self-cleavage worked out at 0.168.

Take U33C G68C: the self-cleavage came to 0.0535.

A30C U58A: the self-cleavage worked out at 0.134.

On to C3A C16G, for which the self-cleavage came to 0.587.

As to U20C A31C, the self-cleavage stood at 0.0231.

Regarding A11U G21C, the self-cleavage was determined as 0.549.

With U20C A49C, the self-cleavage was found to be 0.172.

U5A A39G: the self-cleavage was 0.101.

Regarding U14A G34U, the self-cleavage was determined as 1.47.

For the variant A28U A59C, the self-cleavage was 0.0961.

Turning to G34C A39C, the self-cleavage is 0.9.

Turning to A28U U70A, the self-cleavage was 0.422.

Regarding G42A A49G, the self-cleavage is 0.118.

In the case of G29C A35G, the self-cleavage turned out to be 0.178.

For U9G C16U, the self-cleavage was 0.857.

As for G25U G27C, the self-cleavage turned out to be 0.254.

For the variant U60A U62C, the self-cleavage stood at 0.373.

Regarding C3G U20C, the self-cleavage was 0.302.

As to U8A U52A, the self-cleavage came out at 0.658.

Turning to G21U C38A, the self-cleavage amounted to 0.184.

Regarding U5A U9C, the self-cleavage amounted to 0.179.

With C18G C37G, the self-cleavage is 0.259.

Consider U33C C37U, for which the self-cleavage was determined as 0.0997.

Take A44C A59G: the self-cleavage came to 0.158.

Take U7G C65A: the self-cleavage came out at 0.975.

On to A11U A59C, for which the self-cleavage was 0.137.

Regarding G19U A24C, the self-cleavage stood at 0.79.

A26U G32C: the self-cleavage was 0.128.

In the case of C4G U60A, the self-cleavage stood at 0.105.

As to G15U G57A, the self-cleavage is 0.153.

As to C6U G34C, the self-cleavage turned out to be 1.1.

The values above are taken from the RNAGym collection of RNA variant scans (doi:10.7554/elife.80360).
